Laboratory results as given in paper PMC4706430 (2016).

Target: kallikrein (human, UniProt P03952 20-638)
Sequence (P03952 20-638): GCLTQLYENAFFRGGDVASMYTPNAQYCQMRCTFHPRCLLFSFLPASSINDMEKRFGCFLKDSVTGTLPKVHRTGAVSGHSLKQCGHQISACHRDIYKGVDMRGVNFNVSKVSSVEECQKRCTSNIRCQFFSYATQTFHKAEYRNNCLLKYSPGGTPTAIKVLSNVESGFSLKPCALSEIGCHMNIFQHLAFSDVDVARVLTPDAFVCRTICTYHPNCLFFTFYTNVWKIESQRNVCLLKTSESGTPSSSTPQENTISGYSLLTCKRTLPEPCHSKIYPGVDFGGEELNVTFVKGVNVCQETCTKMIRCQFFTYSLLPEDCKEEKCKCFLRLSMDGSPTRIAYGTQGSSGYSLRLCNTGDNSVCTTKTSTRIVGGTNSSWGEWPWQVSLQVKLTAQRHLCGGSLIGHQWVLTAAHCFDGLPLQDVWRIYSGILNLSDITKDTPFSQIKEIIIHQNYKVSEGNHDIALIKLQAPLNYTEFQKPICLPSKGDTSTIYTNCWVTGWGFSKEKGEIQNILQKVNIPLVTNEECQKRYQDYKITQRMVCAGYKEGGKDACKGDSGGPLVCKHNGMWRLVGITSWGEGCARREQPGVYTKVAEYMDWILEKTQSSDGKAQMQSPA

B1: Boophilin (natural protein)
chain: QRNGFCRLPADEGICKALIPRFYFNTETGKCTMFSYGGCGGNENNFETIEDCQKACGAPERVSDFEGADFKTGCEPAADSGSCAGQLERWFYNVRSGECETFVYGGCGGNDNNYESEEECELVCKNM
modifications: N-terminus blocked (Edman degradation)
Ki: 919 nM
